Source: US20060239968A1 (University of Texas, published 2006)
Positions of bridges follow the written chain, without caps; N, C: chain ends. Non-standard residues stand in square brackets, D forms with d. No end group written: not given here.

Legend:
[1] = target: T1, Recombinant IL-11Rα (IL-11 receptor alpha) (UniProt Q14626 23-370, limits assumed); experiment: in vitro ligand-receptor binding assay, phage on recombinant receptor
T1 construct: also called immobilized IL-11Rα
T1 sequence (looked up): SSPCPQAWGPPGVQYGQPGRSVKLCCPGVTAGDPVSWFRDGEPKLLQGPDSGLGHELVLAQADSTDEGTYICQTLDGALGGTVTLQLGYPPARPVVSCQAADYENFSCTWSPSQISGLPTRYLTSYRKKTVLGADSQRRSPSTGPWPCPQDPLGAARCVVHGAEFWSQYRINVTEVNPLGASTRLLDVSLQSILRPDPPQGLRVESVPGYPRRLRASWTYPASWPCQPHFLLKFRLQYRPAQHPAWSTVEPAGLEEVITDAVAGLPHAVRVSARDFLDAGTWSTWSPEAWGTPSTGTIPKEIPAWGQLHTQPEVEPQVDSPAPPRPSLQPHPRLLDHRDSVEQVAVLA
Procedure: (§1) Recombinant IL-11Rα, vascular endothelial growth factor receptor-1 (VEGFR1) or leptin receptor (OB-R) were incubated with phage displaying the […] (SEQ ID NO:37) peptide. VEGFR1 was used as a representative vascular receptor, while OB-R was used because it shares a co-receptor with IL-11Rα. An unrelated phage clone displaying the peptide […] (SEQ ID NO:38) and insertless fd-tet phage were used as controls. […] Binding of […] (SEQ ID NO:37)-phage to IL-11Rα was specific, since it was inhibited by the native IL-11 ligand in a concentration-dependent manner (not shown). […] These observations with normal prostate tissues were followed by an examination of the expression of IL-11Rα in tumors, as discussed in the present Example.

[2] = target: vascular endothelial growth factor receptor-1 (VEGFR1), recombinant (UniProt P17948 27-756, limits assumed); experiment: as above
Chain of vascular endothelial growth factor receptor-1 (VEGFR1), recombinant (P17948 27-756 limits assumed): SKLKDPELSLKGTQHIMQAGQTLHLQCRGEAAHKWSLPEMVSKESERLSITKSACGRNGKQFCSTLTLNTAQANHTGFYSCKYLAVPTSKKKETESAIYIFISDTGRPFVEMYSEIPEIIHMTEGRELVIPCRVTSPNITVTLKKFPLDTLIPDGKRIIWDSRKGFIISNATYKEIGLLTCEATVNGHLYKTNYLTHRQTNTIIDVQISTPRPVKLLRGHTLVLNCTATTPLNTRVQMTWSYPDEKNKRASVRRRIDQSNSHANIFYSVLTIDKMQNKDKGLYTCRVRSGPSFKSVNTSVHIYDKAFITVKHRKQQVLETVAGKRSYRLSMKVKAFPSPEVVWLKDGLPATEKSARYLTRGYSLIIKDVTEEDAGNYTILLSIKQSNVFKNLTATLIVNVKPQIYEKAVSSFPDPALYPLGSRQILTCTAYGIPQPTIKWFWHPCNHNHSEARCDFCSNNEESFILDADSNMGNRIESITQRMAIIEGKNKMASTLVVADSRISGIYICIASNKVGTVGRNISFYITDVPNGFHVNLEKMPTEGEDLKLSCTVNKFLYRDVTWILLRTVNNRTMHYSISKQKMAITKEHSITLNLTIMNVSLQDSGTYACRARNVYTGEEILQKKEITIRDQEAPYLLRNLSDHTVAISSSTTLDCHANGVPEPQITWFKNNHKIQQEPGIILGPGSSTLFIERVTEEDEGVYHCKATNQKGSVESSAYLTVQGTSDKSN
Procedure: as §1

[3] = target: T2, leptin receptor (OB-R), recombinant (UniProt P48357 22-839, limits assumed); experiment: as above
T2 sequence (looked up): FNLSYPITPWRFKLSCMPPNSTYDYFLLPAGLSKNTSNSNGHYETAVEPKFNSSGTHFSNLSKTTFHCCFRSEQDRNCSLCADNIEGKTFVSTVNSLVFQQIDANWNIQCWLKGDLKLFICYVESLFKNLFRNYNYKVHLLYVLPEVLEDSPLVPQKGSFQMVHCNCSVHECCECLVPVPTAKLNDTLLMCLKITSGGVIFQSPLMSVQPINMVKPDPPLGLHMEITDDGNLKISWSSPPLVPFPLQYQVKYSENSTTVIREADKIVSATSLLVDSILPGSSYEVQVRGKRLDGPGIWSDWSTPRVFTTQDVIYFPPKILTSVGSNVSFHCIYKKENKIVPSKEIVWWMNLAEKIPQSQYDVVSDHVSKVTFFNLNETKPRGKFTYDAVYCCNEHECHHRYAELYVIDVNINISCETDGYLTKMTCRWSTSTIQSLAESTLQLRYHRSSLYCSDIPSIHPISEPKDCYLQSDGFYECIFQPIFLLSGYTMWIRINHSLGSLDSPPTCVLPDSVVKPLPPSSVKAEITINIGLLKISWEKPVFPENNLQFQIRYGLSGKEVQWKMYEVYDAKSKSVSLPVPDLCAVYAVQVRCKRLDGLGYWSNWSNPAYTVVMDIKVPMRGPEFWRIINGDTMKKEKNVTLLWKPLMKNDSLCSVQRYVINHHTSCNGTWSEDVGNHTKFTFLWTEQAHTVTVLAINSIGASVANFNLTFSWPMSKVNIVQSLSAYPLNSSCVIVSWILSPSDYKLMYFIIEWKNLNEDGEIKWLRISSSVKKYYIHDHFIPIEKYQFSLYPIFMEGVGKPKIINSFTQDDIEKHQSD
Procedure: as §1

[4] = target: T3, prohibitin (B cell receptor associated protein) (mouse); experiment: immunoprecipitation from mouse adipose tissue extract, SDS-PAGE
T3 sequence (P67778 2-272, looked up): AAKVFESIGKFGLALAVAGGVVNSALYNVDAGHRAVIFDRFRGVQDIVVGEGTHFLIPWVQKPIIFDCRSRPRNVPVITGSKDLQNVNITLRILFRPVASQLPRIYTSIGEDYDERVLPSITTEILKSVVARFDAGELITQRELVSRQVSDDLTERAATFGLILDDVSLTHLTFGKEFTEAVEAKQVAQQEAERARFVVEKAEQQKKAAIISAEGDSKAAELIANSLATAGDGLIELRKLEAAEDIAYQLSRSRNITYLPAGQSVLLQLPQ

B1: unrelated phage clone displaying the peptide CRVDFSKGC (SEQ ID NO:38) (peptide)
peptide: CRVDFSKGC
notes: used as a control; also called control phage
- binding result [1]: no binding

B2: CGRRAGGSC (SEQ ID NO:37)-displaying phage (peptide)
peptide: CGRRAGGSC
modifications: not fully specified (bridges); cysteine pairing not given here; also: displayed on filamentous phage
notes: also called prostate-homing phage displaying an IL-11 peptide mimic
- binding result [2]: no binding
- binding result [3]: no binding

B3: … (SEQ ID NO:81) conjugated to (KLAKLAK)2 (SEQ ID NO:1) (peptide)
peptide: CKGGRAKDCGG[dK][dL][dA][dK][dL][dA][dK][dK][dL][dA][dK][dL][dA][dK]
modifications: disulfide 1-9 (inferred); not fully specified; also: order of the parts not given here explicitly
- fold enrichment against the CARAC (SEQ ID NO:71) precipitated fraction [4]: > 10 fold
